The chains are these.
T1: purified Vps33 (S. cerevisiae, UniProt P20795 1-691)
T1 sequence: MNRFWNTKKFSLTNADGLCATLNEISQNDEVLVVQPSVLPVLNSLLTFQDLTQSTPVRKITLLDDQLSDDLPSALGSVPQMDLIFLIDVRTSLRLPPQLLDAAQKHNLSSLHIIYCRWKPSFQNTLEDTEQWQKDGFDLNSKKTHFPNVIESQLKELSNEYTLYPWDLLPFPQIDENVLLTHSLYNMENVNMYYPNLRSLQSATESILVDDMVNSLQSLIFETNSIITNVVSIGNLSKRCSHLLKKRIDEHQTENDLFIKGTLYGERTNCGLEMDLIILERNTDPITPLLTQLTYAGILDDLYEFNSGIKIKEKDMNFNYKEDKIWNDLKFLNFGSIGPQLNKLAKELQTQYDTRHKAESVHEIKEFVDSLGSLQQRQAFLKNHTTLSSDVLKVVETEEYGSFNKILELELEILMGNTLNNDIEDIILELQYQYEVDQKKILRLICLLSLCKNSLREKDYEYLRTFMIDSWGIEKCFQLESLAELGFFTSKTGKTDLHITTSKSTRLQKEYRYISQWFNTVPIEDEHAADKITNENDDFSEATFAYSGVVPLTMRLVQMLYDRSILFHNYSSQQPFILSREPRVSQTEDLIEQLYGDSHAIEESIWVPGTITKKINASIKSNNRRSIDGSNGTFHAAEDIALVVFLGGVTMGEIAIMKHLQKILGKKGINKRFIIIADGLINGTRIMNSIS

T2: His6-Vam7 (S. cerevisiae, UniProt P32912 1-316)
T2 sequence: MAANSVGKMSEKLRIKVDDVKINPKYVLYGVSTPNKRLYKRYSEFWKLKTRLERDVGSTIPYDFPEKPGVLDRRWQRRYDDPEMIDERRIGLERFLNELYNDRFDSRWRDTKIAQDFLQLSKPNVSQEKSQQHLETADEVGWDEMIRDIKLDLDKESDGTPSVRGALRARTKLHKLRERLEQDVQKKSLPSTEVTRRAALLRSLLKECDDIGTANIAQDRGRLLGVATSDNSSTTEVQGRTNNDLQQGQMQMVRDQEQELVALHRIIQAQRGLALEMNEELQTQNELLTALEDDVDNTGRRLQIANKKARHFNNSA

T3: His6-Sec22 cytoplasmic domain (UniProt P22214 1-192)
T3 sequence: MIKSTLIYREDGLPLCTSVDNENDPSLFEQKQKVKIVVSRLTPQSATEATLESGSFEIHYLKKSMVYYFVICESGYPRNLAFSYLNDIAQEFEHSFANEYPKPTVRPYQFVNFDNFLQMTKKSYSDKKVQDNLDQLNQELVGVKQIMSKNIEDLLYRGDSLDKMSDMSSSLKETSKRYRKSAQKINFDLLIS

B1: minimal SNARE complex lacking the N-terminal domains of Vam3 and Vam7 (complex)
chain 1: SQEELDFQTIIHQERSQQIGRIHTAVQEVNAIFHQLGSLVKEQGEQVTTIDENISHLHDNMQNANKQLTRADQHQRDRNKCGK
chain 2: PSTEVTRRAALLRSLLKECDDIGTANIAQDRGRLLGVATSDNSSTTEVQGRTNNDLQQGQMQMVRDQEQELVALHRIIQAQRGLALEMNEELQTQNELLTALEDDVDNTGRRLQIANKKARHFNNSA
chain 3: SSLLISYESDFKTTLEQAKASLAEAPSQPLSQRNTTLKHVEQQQDELFDLLDQMDVEVNNSIGDASERATYKAKLREWKKTIQSDIKRPLQSLVDSGDRDRLFGDLNASNIDDDQRQQLLSNHAILQKSGDRLKDASRIANETEGIGSQIMMDLRSQRETLENARQTLFQADSYVDKSIKTLKTMTRRLVANK
chain 4: MKRFNVSYVEVIKNGETISSCFQPFQKNENYGTITSANEQITPVIFHNLIMDMVLPKVVPIKGNKVTKMSMNLIDGFDCFYSTDDHDPKTVYVCFTLVDMPKILPIRILSGLQEYESNATNELLSSHVGQILDSFHEELVEYRNQTLNSSGNGQSSNGNGQNTISDIGDATEDQIKDVIQIMNDNIDKFLERQERVSLLVDKTSQLNSSSNKFRRKAVNIKEIMWWQKVKN
B2: His6-Nyv1 cytoplasmic domain (domain or fragment)
chain: B1 chain 4
B3: His7-MBP-Vti1 cytoplasmic domain (domain or fragment)
chain: B1 chain 3
B4: Vam3 SNARE domain (residues 182–264) fused C-terminally to GST (domain or fragment)
chain: B1 chain 1
B5: Vam3 cytoplasmic domain (residues 1–264) fused C-terminally to GST (domain or fragment)
chain: MSFFDIEAQSSKGNSQQEPQFSTNQKTKELSNLIETFAEQSRVLEKECTKIGSKRDSKELRYKIETELIPNCTSVRDKIESNILIHQNGKLSADFKNLKTKYQSLQQSYNQRKSLFPLKTPISPGTSKERKDIHPRTEAVRQDPESSYISIKVNEQSPLLHNEGQHQLQLQEEQEQQQQGLSQEELDFQTIIHQERSQQIGRIHTAVQEVNAIFHQLGSLVKEQGEQVTTIDENISHLHDNMQNANKQLTRADQHQRDRNKCGK
B6: GST-Sed5 SNARE domain (residues 170–319) (domain or fragment)
chain: ANKDRWQKLTTDTGHAPADDQTQSNHAADLTTYNNSNPFMTSLLDESSEKNNNSSNQGELSFPQNDSQLMLMEEGQLSNNVYLQERNRAVETIESTIQEVGNLFQQLASMVQEQGEVIQRIDANVDDIDLNISGAQRELLKYFDRIKSNR
B7: His6-Bet1 cytoplasmic domain (domain or fragment)
chain: MSSRFAGGNAYQRDTGRTQLFGPADGSNSLDDNVSSALGSTDKLDYSQSTLASLESQSEEQMGAMGQRIKALKSLSLKMGDEIRGSNQTIDQLGDTFHNTSVKLKRTFGNMMEMARR

Common to all, as to experiment: pull-down
In one assay the target is T1, purified Vps33.
The target of assay [1] is B5.
Assay [2] deals with B3.
For assay [3], the target named is B2.
In the next assay the target is T2, His6-Vam7.
The target of assay [4] is T3, His6-Sec22 cytoplasmic domain.
Assay [5] addresses B6.

B1 yielded a Kd with purified Vps33 of 2.8 µM.
Regarding B2, the binding result in assay [1] is “binds”.
Same read-out and setting: in the case of B3 it was “binds”.
On to B4, for which the binding result in assay [2] and in assay [3] was “binds” each time.
For B5, the binding result with His6-Vam7 was “binds”.
For the molecule B6, the binding result in assay [4] is “binds”.
On to B7, for which the binding result in assay [5] is recorded as “binds”.
